Data as given in patent US20230416330A1, “Optimized GIP Peptide Analogues” (Antag Therapeutics ApS, priority 2019, published 2023).
Starred links: 1 amine or outer side, 2 acyl side, 3 side chain; linkers in the order of their positions; H or OH if unused. Residues, ends and D or L forms follow the SMILES beside them. Groups on a side chain read outwards from the residue. No end group written: not given here. *: point of attachment. C18 diacid = O=C(O)CCCCCCCCCCCCCCCCC(=O)*; C16 diacid = O=C(O)CCCCCCCCCCCCCCC(=O)*; γGlu = O=C(O)[C@H](CCC(=O)[*:2])N[*:1]; Glutaryl = O=C(CCCC(=O)[*:2])[*:1]; AEEA = NCCOCCOCC(=O)O

Columns and labels:
[1] = Solubility by visual inspection of peptide solutions; assay type: physicochemical; settings: TFA
How it was run: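 Solubility scored by eye: clear, colorless appearance after gentle mixing. Samples prepared at 1, 5, 7.5 or 15 mg/ml in either pH 7.4 water (NaOH-adjusted) or 50 mM sodium phosphate buffer, pH 7.4.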

[2] = Physical stability: fibril formation in Thioflavin T (ThT) assay with agitation; assay type: physicochemical; settings: TFA, 25° C., agitation
How it was run: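 Read-out is continuous ThT fluorescence at 486 nm, with lag time taken where signal reaches 10% between pre- and post-transition baselines. Filtered samples (1, 5, 7.5 or 15 mg/ml; pH 7.4 phosphate buffer or NaOH-adjusted water) were stressed at 25° C. by orbital rotation at 300 rpm with one silica bead per well.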

human GIP receptor [3] = target: T1, human GIP receptor (Homo sapiens, UniProt P48546); experiment: cAMP assay Alternative 3 (Schild analysis), antagonist potency pKb; assay type: cell-based
T1 construct: host or cells: HEK-293 cells, transient transfection (Lipofectamine 2000), cDNA in pCMV-Script vector
T1 sequence (P48546 22-466): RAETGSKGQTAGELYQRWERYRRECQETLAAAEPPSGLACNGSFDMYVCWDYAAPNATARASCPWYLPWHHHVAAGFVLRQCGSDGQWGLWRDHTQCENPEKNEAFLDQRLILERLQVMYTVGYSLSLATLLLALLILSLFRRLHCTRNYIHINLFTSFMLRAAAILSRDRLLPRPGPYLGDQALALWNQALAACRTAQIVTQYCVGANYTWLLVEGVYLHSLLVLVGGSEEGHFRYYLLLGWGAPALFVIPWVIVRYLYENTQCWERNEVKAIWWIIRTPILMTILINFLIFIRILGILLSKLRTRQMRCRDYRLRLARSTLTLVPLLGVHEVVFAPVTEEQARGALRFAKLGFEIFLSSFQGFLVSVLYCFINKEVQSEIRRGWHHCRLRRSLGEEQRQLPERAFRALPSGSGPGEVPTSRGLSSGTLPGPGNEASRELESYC
Procedure: Antagonist potency was also determined by Schild analysis. GIP1-42 EC50 was measured in the absence of antagonist and EC50′ was measured in the presence of increasing concentrations of antagonist. These values were used to calculate a dose ratio (DR=EC50′/EC50) for each antagonist concentration, and log(DR-1) was plotted against log(antagonist concentration).
The in vitro functional assessment of compounds towards human GIP receptor was determined in HEK-293 cells transiently expressing the receptor. On the day of the assay, cells were resuspended in HBSS buffer (Gibco, 14025-50) supplemented with […] (Gibco, 15630-106), 0.1% Pluronic F-68 (Gibco, 24040-032) and 0.1% casein (Sigma, C4765), and plated in 384-well plates at a density of 3500 cells/well. […] The intracellular cAMP was quantitatively determined using the CisBio cAMP Dynamic 2 HTRF Assay Kit. […]
The cAMP-d2 conjugate and the antibody anti-cAMP-Cryptate, both diluted in lysis buffer provided in the kit, were added to the cells according to the manufacturer's protocol. The resulting competitive assay was incubated for 60 minutes at room temperature, and the signal was detected by using a PerkinElmer Envision® instrument with excitation at 320 nm and emission at 665 nm and 620 nm. […]

human GIP receptor [4] = target: T2, human GIP receptor (human, UniProt P48546 22-466); experiment: cell-based or functional assay
T2 sequence (looked up): T1 sequence (P48546 22-466)

human GIP receptor [5] = target: T2, human GIP receptor; experiment: cell-based or functional assay; remark: listed apart in the source

For `CC[C@H](C)[C@H](NC(=O)[C@H](CO)NC(=O)[C@H](Cc1ccc(O)cc1)NC(=O)[C@H](CC(=O)O)NC(=O)[C@H](CO)NC(=O)[C@@H](NC(=O)[C@H](Cc1ccccc1)NC(=O)[C@@H](NC(=O)CNC(=O)CCCC(=O)O)[C@@H](C)O)[C@@H](C)CC)C(=O)N[C@@H](C)C(=O)N[C@@H](CCSC)C(=O)N[C@@H](CC(=O)O)C(=O)N[C@@H](CCCCN)C(=O)N[C@H](C(=O)N[C@@H](CCCCNC(=O)CCCCCCCCCCCCCCC(=O)O)C(=O)N[C@@H](CCC(N)=O)C(=O)N[C@@H](CCC(N)=O)C(=O)N[C@@H](CC(=O)O)C(=O)N[C@@H](Cc1ccccc1)C(=O)N[C@H](C(=O)N[C@@H](CCC(=O)O)C(=O)N[C@@H](Cc1c[nH]c2ccccc12)C(=O)N[C@@H](CC(C)C)C(=O)N[C@@H](CC(C)C)C(=O)N[C@@H](C)C(=O)N[C@@H](CCC(N)=O)C(=O)N[C@@H](CCCCN)C(=O)N1CCC[C@H]1C(=O)N[C@@H](CO)C(=O)N[C@@H](CO)C(=O)NCC(=O)N[C@@H](C)C(=O)N1CCC[C@H]1C(=O)N1CCC[C@H]1C(=O)N1CCC[C@H]1C(=O)N[C@@H](CO)C(=O)O)C(C)C)[C@@H](C)CC` [AT762] (Glutaryl-GTFISDYSIAMDKIK(C16 diacid)QQDFVEWLLAQKPSSGAPPPS-OH), the Visual appearance ([1]; 1 mg/ml, Phosphate (7.4)) was “Clear”, the Visual appearance ([1]; 5 mg/ml, MilliQ) was “Clear” and the “Avr lag time (h)” value ([2]; 1 mg/ml, Phosphate (7.4)) was “fnd (Fnd = fibrils not detected within experiment time (96 hours) with agitation.)”. For the same molecule, the “Avr lag time (h)” value ([2]; 5 mg/ml, MilliQ) was “fnd (Fnd = fibrils not detected within experiment time (96 hours) with agitation.)” and the Kb (human GIP receptor [3]) was 0.15 nM.

B1: AT364 (peptide)
peptide: EGTFISDYSIAMDKIK(C16 diacid)QQDFVNWLLAQKPSSGAPPPS-OH
modifications: N-terminus assumed
SMILES: CC[C@H](C)[C@H](NC(=O)[C@H](CO)NC(=O)[C@H](Cc1ccc(O)cc1)NC(=O)[C@H](CC(=O)O)NC(=O)[C@H](CO)NC(=O)[C@@H](NC(=O)[C@H](Cc1ccccc1)NC(=O)[C@@H](NC(=O)CNC(=O)[C@@H](N)CCC(=O)O)[C@@H](C)O)[C@@H](C)CC)C(=O)N[C@@H](C)C(=O)N[C@@H](CCSC)C(=O)N[C@@H](CC(=O)O)C(=O)N[C@@H](CCCCN)C(=O)N[C@H](C(=O)N[C@@H](CCCCNC(=O)CCCCCCCCCCCCCCC(=O)O)C(=O)N[C@@H](CCC(N)=O)C(=O)N[C@@H](CCC(N)=O)C(=O)N[C@@H](CC(=O)O)C(=O)N[C@@H](Cc1ccccc1)C(=O)N[C@H](C(=O)N[C@@H](CC(N)=O)C(=O)N[C@@H](Cc1c[nH]c2ccccc12)C(=O)N[C@@H](CC(C)C)C(=O)N[C@@H](CC(C)C)C(=O)N[C@@H](C)C(=O)N[C@@H](CCC(N)=O)C(=O)N[C@@H](CCCCN)C(=O)N1CCC[C@H]1C(=O)N[C@@H](CO)C(=O)N[C@@H](CO)C(=O)NCC(=O)N[C@@H](C)C(=O)N1CCC[C@H]1C(=O)N1CCC[C@H]1C(=O)N1CCC[C@H]1C(=O)N[C@@H](CO)C(=O)O)C(C)C)[C@@H](C)CC
For B1, the “nM (Kb, Schild analysis, cAMP)” value (human GIP receptor [4]) was 0.77 nM, the “pKb (Schild analysis, cAMP)” value (human GIP receptor [4]) was 9.1 and the “cAMP antagonism nM (IC50, CisBio assay)” value (human GIP receptor [5]) was 1.12 nM. For the same molecule, the “cAMP antagonism pIC50 (CisBio assay)” value (human GIP receptor [5]) was 9.

In the case of EGTFISDYSIAMDKIHQQDFVNWLLAQK [GIP(3-30)], the “nM (Kb, Schild analysis, cAMP)” value (human GIP receptor [4]) is reported as 3.5 nM, the “pKb (Schild analysis, cAMP)” value (human GIP receptor [4]) is reported as 8.5 and the “cAMP antagonism nM (IC50, CisBio assay)” value (human GIP receptor [5]) is reported as 33.8 nM. For the same molecule, the “cAMP antagonism pIC50 (CisBio assay)” value (human GIP receptor [5]) was 7.5.

B2: AT158 (peptide)
peptide: EGTFISDYSIAMDKIK(C16 diacid)QQDFVNWLLAQK-NH2
modifications: N-terminus assumed
SMILES: CC[C@H](C)[C@H](NC(=O)[C@H](CO)NC(=O)[C@H](Cc1ccc(O)cc1)NC(=O)[C@H](CC(=O)O)NC(=O)[C@H](CO)NC(=O)[C@@H](NC(=O)[C@H](Cc1ccccc1)NC(=O)[C@@H](NC(=O)CNC(=O)[C@@H](N)CCC(=O)O)[C@@H](C)O)[C@@H](C)CC)C(=O)N[C@@H](C)C(=O)N[C@@H](CCSC)C(=O)N[C@@H](CC(=O)O)C(=O)N[C@@H](CCCCN)C(=O)N[C@H](C(=O)N[C@@H](CCCCNC(=O)CCCCCCCCCCCCCCC(=O)O)C(=O)N[C@@H](CCC(N)=O)C(=O)N[C@@H](CCC(N)=O)C(=O)N[C@@H](CC(=O)O)C(=O)N[C@@H](Cc1ccccc1)C(=O)N[C@H](C(=O)N[C@@H](CC(N)=O)C(=O)N[C@@H](Cc1c[nH]c2ccccc12)C(=O)N[C@@H](CC(C)C)C(=O)N[C@@H](CC(C)C)C(=O)N[C@@H](C)C(=O)N[C@@H](CCC(N)=O)C(=O)N[C@@H](CCCCN)C(N)=O)C(C)C)[C@@H](C)CC
In the case of B2, the “nM (Kb, Schild analysis, cAMP)” value (human GIP receptor [4]) is reported as 3.7 nM, the “pKb (Schild analysis, cAMP)” value (human GIP receptor [4]) is reported as 8.4 and the “cAMP antagonism nM (IC50, CisBio assay)” value (human GIP receptor [5]) is reported as 14.3 nM. For the same molecule, the “cAMP antagonism pIC50 (CisBio assay)” value (human GIP receptor [5]) was 7.8.

B3: AT437 (peptide)
peptide: SGTFISDYSIAMDKIK([AEEA-AEEA-γGlu-C18 diacid])QQDFVNWLLAQKPSSGAPPPS-OH
modifications: N-terminus assumed
SMILES: CC[C@H](C)[C@H](NC(=O)[C@H](CO)NC(=O)[C@H](Cc1ccc(O)cc1)NC(=O)[C@H](CC(=O)O)NC(=O)[C@H](CO)NC(=O)[C@@H](NC(=O)[C@H](Cc1ccccc1)NC(=O)[C@@H](NC(=O)CNC(=O)[C@@H](N)CO)[C@@H](C)O)[C@@H](C)CC)C(=O)N[C@@H](C)C(=O)N[C@@H](CCSC)C(=O)N[C@@H](CC(=O)O)C(=O)N[C@@H](CCCCN)C(=O)N[C@H](C(=O)N[C@@H](CCCCNC(=O)COCCOCCNC(=O)COCCOCCNC(=O)CC[C@H](NC(=O)CCCCCCCCCCCCCCCCC(=O)O)C(=O)O)C(=O)N[C@@H](CCC(N)=O)C(=O)N[C@@H](CCC(N)=O)C(=O)N[C@@H](CC(=O)O)C(=O)N[C@@H](Cc1ccccc1)C(=O)N[C@H](C(=O)N[C@@H](CC(N)=O)C(=O)N[C@@H](Cc1c[nH]c2ccccc12)C(=O)N[C@@H](CC(C)C)C(=O)N[C@@H](CC(C)C)C(=O)N[C@@H](C)C(=O)N[C@@H](CCC(N)=O)C(=O)N[C@@H](CCCCN)C(=O)N1CCC[C@H]1C(=O)N[C@@H](CO)C(=O)N[C@@H](CO)C(=O)NCC(=O)N[C@@H](C)C(=O)N1CCC[C@H]1C(=O)N1CCC[C@H]1C(=O)N1CCC[C@H]1C(=O)N[C@@H](CO)C(=O)O)C(C)C)[C@@H](C)CC
For B3, the “cAMP antagonism nM (IC50, CisBio assay)” value (human GIP receptor [5]) was 35.5 nM and the “cAMP antagonism pIC50 (CisBio assay)” value (human GIP receptor [5]) was 7.5.

B4: AT482 (peptide)
peptide: EGTFISEYSIAMEKIK(C16 diacid)QQEFVQWLLAQK-NH2
modifications: N-terminus assumed
SMILES: CC[C@H](C)[C@H](NC(=O)[C@H](CO)NC(=O)[C@H](Cc1ccc(O)cc1)NC(=O)[C@H](CCC(=O)O)NC(=O)[C@H](CO)NC(=O)[C@@H](NC(=O)[C@H](Cc1ccccc1)NC(=O)[C@@H](NC(=O)CNC(=O)[C@@H](N)CCC(=O)O)[C@@H](C)O)[C@@H](C)CC)C(=O)N[C@@H](C)C(=O)N[C@@H](CCSC)C(=O)N[C@@H](CCC(=O)O)C(=O)N[C@@H](CCCCN)C(=O)N[C@H](C(=O)N[C@@H](CCCCNC(=O)CCCCCCCCCCCCCCC(=O)O)C(=O)N[C@@H](CCC(N)=O)C(=O)N[C@@H](CCC(N)=O)C(=O)N[C@@H](CCC(=O)O)C(=O)N[C@@H](Cc1ccccc1)C(=O)N[C@H](C(=O)N[C@@H](CCC(N)=O)C(=O)N[C@@H](Cc1c[nH]c2ccccc12)C(=O)N[C@@H](CC(C)C)C(=O)N[C@@H](CC(C)C)C(=O)N[C@@H](C)C(=O)N[C@@H](CCC(N)=O)C(=O)N[C@@H](CCCCN)C(N)=O)C(C)C)[C@@H](C)CC
In the case of B4, the “cAMP antagonism nM (IC50, CisBio assay)” value (human GIP receptor [5]) is reported as 14.1 nM and the “cAMP antagonism pIC50 (CisBio assay)” value (human GIP receptor [5]) is reported as 7.9.
